Usually stoichiometry N stands for a count of units in the complex or per binding partner.

The target in the assay is PaMprF H566C mutant (Pseudomonas aeruginosa). The experiment in a line: cross-linking + native gel or EMSA; purified enzymes in GDN and in nanodisc, with cross-linker; SDS added to the sample before loading on the BN-PAGE gel. For orientation: Mobility shift assays separate free from complexed probe on a gel.

As for PaMprF H566C mutant (enzyme), the stoichiometry N came out at 2.
